Series [1] deals with T1, CAF40 module (NOT1:CAF40) (Homo sapiens, UniProt A5YKK6;Q92600 1351-1588;19-285). Description: EMSA competition; 100 uM NOT1:CAF40 + 200 uM MBP-Bam CBM L17E;M24E; almost no effect on RNA binding; EMSA: 20 mM Tris/HCl pH 7.5, 10 mM NaCl, 2 mM MgCl2, 0.1% BSA, 0.1% Orange G, 3% Ficoll 400; 100 nM RNA; 10% native PAGE in TBE pH 8.3; temperature not stated. The note with it: protein: recombinant; tags: MBP (NOT1) and His6 (CAF40) removed; copies: 1;1; label: 5' 6-FAM.

The target in the next series is NOT10:NOT11 (Homo sapiens, UniProt Q9H9A5;Q9UKZ1 25-707;257-498). Description: EMSA; 1 uM protein, 100 nM RNA; EMSA: 20 mM Tris/HCl pH 7.5, 10 mM NaCl, 2 mM MgCl2, 0.1% BSA, 0.1% Orange G, 3% Ficoll 400; 100 nM RNA; 10% native PAGE in TBE pH 8.3; temperature not stated. Particulars: protein: recombinant; tags: MBP (NOT10) and C-His6 (NOT11) removed; copies: 1;1; label: 5' 6-FAM.
Chain of NOT10:NOT11 (Q9H9A5 25-707, chain 1 of 2, other chains not shown): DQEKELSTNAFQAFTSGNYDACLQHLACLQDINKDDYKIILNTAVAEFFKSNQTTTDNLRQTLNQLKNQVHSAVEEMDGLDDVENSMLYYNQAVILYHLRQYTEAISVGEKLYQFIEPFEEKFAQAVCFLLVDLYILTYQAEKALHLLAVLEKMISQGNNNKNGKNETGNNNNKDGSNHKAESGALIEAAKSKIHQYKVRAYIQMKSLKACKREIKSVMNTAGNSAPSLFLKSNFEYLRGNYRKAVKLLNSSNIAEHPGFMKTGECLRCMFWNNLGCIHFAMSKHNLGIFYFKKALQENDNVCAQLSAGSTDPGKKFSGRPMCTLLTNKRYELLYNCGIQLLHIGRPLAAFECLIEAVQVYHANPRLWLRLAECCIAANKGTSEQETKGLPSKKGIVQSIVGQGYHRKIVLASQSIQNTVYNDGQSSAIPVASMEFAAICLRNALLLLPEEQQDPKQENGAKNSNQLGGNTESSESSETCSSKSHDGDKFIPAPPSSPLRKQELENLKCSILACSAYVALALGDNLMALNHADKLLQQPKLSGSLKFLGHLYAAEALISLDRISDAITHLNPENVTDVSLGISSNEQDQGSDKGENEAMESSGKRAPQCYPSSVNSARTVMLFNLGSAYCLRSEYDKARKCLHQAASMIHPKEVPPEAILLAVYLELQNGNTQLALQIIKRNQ

Series [2] has as its target T1, CAF40 module (NOT1:CAF40). Description: EMSA; 25 uM protein, 100 nM RNA; EMSA: 20 mM Tris/HCl pH 7.5, 10 mM NaCl, 2 mM MgCl2, 0.1% BSA, 0.1% Orange G, 3% Ficoll 400; 100 nM RNA; 10% native PAGE in TBE pH 8.3; temperature not stated. Particulars: protein: recombinant; tags: MBP (NOT1) and His6 (CAF40) removed; copies: 1;1; label: 5' 6-FAM.

T1 sequence (A5YKK6 1351-1588, chain 1 of 2): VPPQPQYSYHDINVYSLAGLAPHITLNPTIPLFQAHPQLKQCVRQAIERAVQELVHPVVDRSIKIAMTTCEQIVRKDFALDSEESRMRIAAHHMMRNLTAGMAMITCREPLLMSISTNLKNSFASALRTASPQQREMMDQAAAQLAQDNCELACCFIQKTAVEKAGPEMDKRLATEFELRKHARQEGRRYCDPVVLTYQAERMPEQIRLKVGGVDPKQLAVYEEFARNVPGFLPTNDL
T1 sequence (Q92600 19-285, chain 2 of 2): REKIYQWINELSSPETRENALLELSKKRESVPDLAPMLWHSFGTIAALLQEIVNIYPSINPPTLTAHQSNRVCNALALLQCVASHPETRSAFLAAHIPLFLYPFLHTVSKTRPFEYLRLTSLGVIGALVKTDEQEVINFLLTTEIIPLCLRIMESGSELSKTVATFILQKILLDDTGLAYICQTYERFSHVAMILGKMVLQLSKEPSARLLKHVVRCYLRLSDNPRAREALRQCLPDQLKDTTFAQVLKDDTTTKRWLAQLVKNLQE

On to UCUAAAUAAAAAAAAAAAAAAAAAAAA (ssRNA) [7-mer-A20], for which the binding result (in series [1]; in the series with NOT10:NOT11) was “binds” in each case.

As to CACAUCCAACUUCUCUAAAUAAAAAAAAAAAAAAAAAAAA (ssRNA) [13+7-mer-A20], the binding result (in series [2]; in the series with NOT10:NOT11) was “binds” in each case.

(Values after paper PMC6639331, “Reconstitution of recombinant human CCR4-NOT reveals molecular insights into regulated deadenylation”.)
